In article PMC7305319, “Talin dissociates from RIAM and associates to vinculin sequentially in response to the actomyosin force” (Nature Communications, 2020):
Where two headings read alike, the source gives them in different places. Values belong to the molecule of their own block, whether it stands above or below them.

What was measured:
RIAM (Homo sapiens) [1] = target: RIAM (Homo sapiens) (UniProt Q7Z5R6); conditions: cited from earlier work
RIAM (Homo sapiens) [2] = target: RIAM (Homo sapiens) (UniProt Q7Z5R6); conditions: cited from earlier work; remark: listed apart in the source
Talin R1-R2-R3 = Talin R1-R2-R3 (UniProt Q9Y490); conditions: cited from earlier work
[3] = target: T1, talin F2–F3–R1–R2–R3 (talin 196–911) (human, UniProt Q9Y490 196-911); test: fluorescence microscopy of protein-coated micropatterns; talin construct (1 µM during coating) on 5 µm disk micropatterns, 0–1 µM mCherry-RIAM 1-306 in solution, no actomyosin; Kd estimated as the RIAM concentration at half saturation; conditions: both partners purified
T1 construct: human talin-1, F2–F3–R1–R2–R3, residues 196–911; The methods tell of GST cleavage only for mCherry-RIAM 1-306 and EGFP-Vh, so GST was probably kept on this construct; also called the same construct fused to R1–R2–R3; source: E. coli BL21 DE3, purified (glutathione-Sepharose, Ni-NTA)

[4] = target: T2, talin R1–R2–R3 (F2–F3–R1–R2–R3–R13) (human); test: as above
T2 chain: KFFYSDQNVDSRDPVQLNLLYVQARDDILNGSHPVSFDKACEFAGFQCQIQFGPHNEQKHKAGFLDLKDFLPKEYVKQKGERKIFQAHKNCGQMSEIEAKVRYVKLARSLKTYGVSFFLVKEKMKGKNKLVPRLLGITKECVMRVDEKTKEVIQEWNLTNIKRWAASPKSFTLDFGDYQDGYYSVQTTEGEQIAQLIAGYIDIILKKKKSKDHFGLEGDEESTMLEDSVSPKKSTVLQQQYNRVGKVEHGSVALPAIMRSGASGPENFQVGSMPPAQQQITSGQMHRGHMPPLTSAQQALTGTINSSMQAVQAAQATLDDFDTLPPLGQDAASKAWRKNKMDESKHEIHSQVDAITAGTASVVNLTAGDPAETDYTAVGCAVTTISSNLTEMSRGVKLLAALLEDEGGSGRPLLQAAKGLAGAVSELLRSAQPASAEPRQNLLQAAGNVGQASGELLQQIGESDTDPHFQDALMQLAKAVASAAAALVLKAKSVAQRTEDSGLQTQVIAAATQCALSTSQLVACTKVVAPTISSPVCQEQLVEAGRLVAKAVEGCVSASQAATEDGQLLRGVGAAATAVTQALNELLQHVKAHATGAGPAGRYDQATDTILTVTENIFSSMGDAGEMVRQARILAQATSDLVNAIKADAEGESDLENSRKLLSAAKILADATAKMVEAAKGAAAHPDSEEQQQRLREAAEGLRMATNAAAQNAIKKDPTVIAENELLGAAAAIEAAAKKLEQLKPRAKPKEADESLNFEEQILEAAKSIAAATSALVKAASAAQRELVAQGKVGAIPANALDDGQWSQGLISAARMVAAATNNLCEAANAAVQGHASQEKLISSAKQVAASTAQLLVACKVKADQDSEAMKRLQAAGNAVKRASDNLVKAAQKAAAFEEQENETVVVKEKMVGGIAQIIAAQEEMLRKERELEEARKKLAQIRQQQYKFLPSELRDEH

[5] = target: T2, talin R1–R2–R3 (F2–F3–R1–R2–R3–R13); test: fluorescence microscopy of protein-coated micropatterns; talin construct (1 µM during coating) on disk micropatterns, 100 nM mCherry-RIAM 1-306 in solution, with actomyosin (2.4 µM actin, 50 nM myosin II) applying force to talin
[6] = target: T3, talin R11 (F2–F3–R11–R13) (human)
T3 chain: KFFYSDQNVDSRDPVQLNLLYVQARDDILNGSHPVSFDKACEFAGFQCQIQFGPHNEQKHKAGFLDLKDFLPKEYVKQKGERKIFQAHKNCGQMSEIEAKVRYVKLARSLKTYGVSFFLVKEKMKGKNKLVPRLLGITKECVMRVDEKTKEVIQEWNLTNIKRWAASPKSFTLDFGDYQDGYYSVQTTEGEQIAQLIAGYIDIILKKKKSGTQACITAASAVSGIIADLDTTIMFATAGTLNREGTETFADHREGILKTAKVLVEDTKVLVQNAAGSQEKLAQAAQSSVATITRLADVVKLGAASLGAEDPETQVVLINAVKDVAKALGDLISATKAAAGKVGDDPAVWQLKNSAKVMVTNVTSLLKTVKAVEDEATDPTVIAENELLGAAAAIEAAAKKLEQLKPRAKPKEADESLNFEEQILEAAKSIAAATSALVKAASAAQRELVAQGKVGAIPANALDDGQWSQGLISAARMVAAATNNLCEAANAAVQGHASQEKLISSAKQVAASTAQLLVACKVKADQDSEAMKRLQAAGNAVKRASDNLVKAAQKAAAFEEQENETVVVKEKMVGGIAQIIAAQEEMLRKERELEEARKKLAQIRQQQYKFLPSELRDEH

[7] = target: T4, talin R7–R8 (F2–F3–R7–R8–R13) (human)
T4 chain: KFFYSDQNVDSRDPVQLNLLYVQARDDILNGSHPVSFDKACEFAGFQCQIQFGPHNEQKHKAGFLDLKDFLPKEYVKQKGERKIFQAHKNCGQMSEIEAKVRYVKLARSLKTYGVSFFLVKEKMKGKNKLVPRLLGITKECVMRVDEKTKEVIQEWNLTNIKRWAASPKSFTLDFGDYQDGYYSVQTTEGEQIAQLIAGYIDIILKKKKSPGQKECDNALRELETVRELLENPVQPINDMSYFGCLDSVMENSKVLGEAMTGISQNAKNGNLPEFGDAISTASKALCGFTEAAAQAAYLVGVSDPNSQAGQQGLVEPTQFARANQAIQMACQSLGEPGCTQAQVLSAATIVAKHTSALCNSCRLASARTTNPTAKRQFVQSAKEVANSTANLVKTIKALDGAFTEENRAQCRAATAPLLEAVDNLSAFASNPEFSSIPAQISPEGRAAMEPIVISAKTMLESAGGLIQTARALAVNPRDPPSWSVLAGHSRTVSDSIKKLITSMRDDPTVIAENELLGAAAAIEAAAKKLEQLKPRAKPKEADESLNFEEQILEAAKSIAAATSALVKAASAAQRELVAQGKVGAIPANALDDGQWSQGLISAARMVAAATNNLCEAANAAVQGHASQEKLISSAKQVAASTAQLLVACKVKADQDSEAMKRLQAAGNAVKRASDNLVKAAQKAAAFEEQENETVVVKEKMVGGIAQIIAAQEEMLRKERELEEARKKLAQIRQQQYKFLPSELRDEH

[8] = target: T2, talin R1–R2–R3 (F2–F3–R1–R2–R3–R13)

RIAM (Homo sapiens), sequence (Q7Z5R6 whole entry): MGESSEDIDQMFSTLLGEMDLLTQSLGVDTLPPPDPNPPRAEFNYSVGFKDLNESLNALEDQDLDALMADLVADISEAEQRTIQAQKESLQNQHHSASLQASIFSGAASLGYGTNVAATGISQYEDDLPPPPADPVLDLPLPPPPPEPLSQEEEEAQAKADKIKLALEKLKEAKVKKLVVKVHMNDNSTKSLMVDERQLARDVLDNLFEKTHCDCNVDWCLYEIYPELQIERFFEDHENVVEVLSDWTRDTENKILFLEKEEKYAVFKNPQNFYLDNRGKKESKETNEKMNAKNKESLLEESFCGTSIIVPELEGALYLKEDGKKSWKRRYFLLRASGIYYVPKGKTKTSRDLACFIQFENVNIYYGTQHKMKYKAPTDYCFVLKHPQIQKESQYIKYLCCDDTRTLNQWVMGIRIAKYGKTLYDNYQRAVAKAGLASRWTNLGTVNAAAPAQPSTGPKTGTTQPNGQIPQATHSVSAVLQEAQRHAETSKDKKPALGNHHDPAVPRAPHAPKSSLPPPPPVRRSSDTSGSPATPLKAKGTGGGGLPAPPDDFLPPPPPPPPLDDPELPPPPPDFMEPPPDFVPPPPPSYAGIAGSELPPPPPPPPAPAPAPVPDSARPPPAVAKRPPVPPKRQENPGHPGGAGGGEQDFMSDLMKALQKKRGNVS

Molecule: Talin F3 (from UniProt P26039)
Kd (RIAM (Homo sapiens) [1]): 32000 nM

Molecule: Vinculin Vh (from UniProt P18206)
Kd (RIAM (Homo sapiens) [2]): 5000 nM
Kd (Talin R1-R2-R3): 140 nM

binding result [3]: binds
Kd [4]: 36 nM
percent of RIAM dissociated from talin at the end of the kinetics with actomyosin [5]: 50%
Kd [6]: 36 nM
Kd [7]: 38 nM
Kd [8]: 134 nM
B1: mCherry-RIAM 1-306 (domain or fragment, mouse, UniProt Q8R5A3 1-306, looked up)
chain: MGESNEDIDQMFSTLLGEMDLLTQSLGVDTLPPPDPNPPREEFNYTVGFKDLNESLNALEDQDLDALMADLVADISEAEQRTIQAQKESSQNQDRFALLRASDGQGTASGGYGASAAAIDVSHHEEALPPPPVEPMLDLLPPPPPPPPPELLSKEEEEAKAKADKIKLALEKLKEAKVKKLVVKVHMDDSSTKSLMVDERQLARDVLDNLFEKTHCDCNVDWCLYEIYPELQIERVFEDHENVVEVLSDWTRDTENKVLFLEKEERYAVFKNPQNFYLDNKGKKENKETNEKMNAKNKEYLLEESF
notes: Cloned in a homemade pGEX-6P2-mCherry plasmid; source: E. coli BL21 DE3, purified (glutathione-Sepharose, PreScission cleavage, Ni-NTA); not shown: GST, N-terminal, cleaved
